Consider 39 molecules from US20250340591A1, “COMPOSITION FOR PREVENTING OR TREATING INFLAMMATORY BOWEL DISEASE CONTAINING NOVEL COMPOUND” (ANYGEN CO., LTD., priority 2021, published 2025).

Square brackets hold non-standard residues; d marks the D form. Ends that are not written are not given here. * marks the point of attachment. DAMP‑2 = 1,3-bis(2-cyclohexylethyl) substitution on the histidine imidazole ring (1,3-bis(2-cyclohexylethyl)-2,3-dihydro-1H-imidazol-4-yl side chain), C1=C(*)N(CCC2CCCCC2)CN1CCC1CCCCC1; 2‑(4-tert-butyl)phenyl = 2-(4-tert-butylphenyl) substituent on the histidine imidazole (2-(4-(tert-butyl)phenyl)-1H-imidazol-4-yl), CC(C)(C)c1ccc(*)cc1; DAMP‑5 = 3-(2-cyclohexylethyl) substitution on the histidine imidazole ring (3-(2-cyclohexylethyl)-2,3-dihydro-1H-imidazol-4-yl side chain); DAMP‑3 = 1,3-diphenethyl substitution on the histidine imidazole ring (1,3-diphenethyl-2,3-dihydro-1H-imidazol-4-yl side chain); thiophene = 2-(thiophen-2-yl) substituent on the histidine imidazole (2-(thiophen-2-yl)-1H-imidazol-4-yl), c1csc(*)c1; 4‑methoxybenzhydryl = (4-methoxyphenyl)(phenyl)methyl on the His imidazole, COc1ccc(C(c2ccccc2)*)cc1; 1,2‑diphenyl = 1,2-diphenyl substituents on the histidine imidazole (1,2-diphenyl-1H-imidazol-4-yl); 1‑phenyl = 1-phenyl substituent on the histidine imidazole (1-phenyl-1H-imidazol-4-yl), c1ccc(*)cc1; 2‑phenyl = 2-phenyl substituent on the histidine imidazole (2-phenyl-1H-imidazol-4-yl), c1ccc(*)cc1; 4‑hydroxybenzhydryl = (4-hydroxyphenyl)(phenyl)methyl on the His imidazole, Oc1ccc(C(c2ccccc2)*)cc1; Tyr(3,5-(NO2)2) = N[C@@H](Cc1cc([N+](=O)[O-])c(O)c([N+](=O)[O-])c1)C(=O)O; Tyr(3-NO2) = N[C@@H](Cc1ccc(O)c([N+](=O)[O-])c1)C(=O)O; Biotin = O=C1N[C@H]2[C@H](CS[C@H]2CCCCC(=O)*)N1; dPhe(4-CF3) = N[C@H](Cc1ccc(C(F)(F)F)cc1)C(=O)O; 1‑(4-tert-butyl)phenyl = CC(C)(C)c1ccc(*)cc1; Tyr(3-Cl) = N[C@@H](Cc1ccc(O)c(Cl)c1)C(=O)O; Tyr(3-NH2) = Nc1cc(C[C@H](N)C(=O)O)ccc1O; dPhe(4-Cl) = N[C@H](Cc1ccc(Cl)cc1)C(=O)O; dPhe(4-Me) = Cc1ccc(C[C@@H](N)C(=O)O)cc1; Mtt = Cc1ccc(C(c2ccccc2)(c2ccccc2)*)cc1; Trt = c1ccc(C(c2ccccc2)(c2ccccc2)*)cc1; Benzhydryl = c1ccc(C(c2ccccc2)*)cc1; 2‑cyclohexylethyl = C1CCC(CC*)CC1; Tos = Cc1ccc(S(=O)(=O)*)cc1; Octanoyl = CCCCCCCC(=O)*

The labels stand for the following.
T1: GPR39 (G protein coupled receptor 39) (UniProt O43194 1-453, limits assumed)
T1 sequence (looked up): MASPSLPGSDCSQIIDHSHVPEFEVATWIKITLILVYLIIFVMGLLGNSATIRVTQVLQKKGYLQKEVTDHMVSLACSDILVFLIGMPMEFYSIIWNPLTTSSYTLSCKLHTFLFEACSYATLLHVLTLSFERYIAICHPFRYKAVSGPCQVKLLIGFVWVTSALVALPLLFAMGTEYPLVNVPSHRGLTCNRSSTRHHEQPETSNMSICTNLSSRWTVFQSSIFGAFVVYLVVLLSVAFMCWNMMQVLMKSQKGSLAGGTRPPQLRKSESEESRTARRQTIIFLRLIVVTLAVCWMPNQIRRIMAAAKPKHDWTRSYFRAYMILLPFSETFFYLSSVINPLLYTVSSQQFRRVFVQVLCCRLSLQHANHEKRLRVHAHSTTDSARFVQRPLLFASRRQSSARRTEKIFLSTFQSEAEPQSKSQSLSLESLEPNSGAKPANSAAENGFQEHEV

B1: HKFY-67 (peptide)
peptide: H(Benzhydryl)K(Octanoyl)[dPhe(4-Me)][Tyr(3-Cl)]-OH
B2: HKFY-53 (peptide)
peptide: H(Trt)GSK(Octanoyl)FY-OH
B3: HKFY-2 (peptide)
peptide: Biotin-H(Trt)K(Octanoyl)FY
B4: HKFY-7 (peptide)
peptide: H(DAMP‑5)K(Octanoyl)FY
B5: HKFY-65 (peptide)
peptide: H(4‑hydroxybenzhydryl)K(Octanoyl)[dPhe(4-Me)]Y-OH
B6: HKFY-76 (peptide)
peptide: H(Trt)K(Octanoyl)[dPhe(4-CF3)]Y-OH
B7: HKFY-12 (peptide)
peptide: H(Trt)K(Octanoyl)[dF]Y-OH
modifications: not fully specified; printed as His(trt)-Lys(caprylic)-d-Phe-Tyr
B8: HKFY-79 (peptide)
peptide: His(Benzhydryl)-Lys(Octanoyl)-OH
B9: HKFY-14 (peptide)
peptide: [dH](Trt)K(Octanoyl)[dPhe(4-Cl)][dY]
B10: HKFY-69 (peptide)
peptide: H(Benzhydryl)K(Octanoyl)[dPhe(4-Me)][Tyr(3,5-(NO2)2)]
B11: HKFY-56 (peptide)
peptide: H(Trt)K(caproic)FYDQQARF
modifications: also: C-terminal Phe amide in IUPAC name, not in sequence formula
B12: HKFY-63 (peptide)
peptide: H(thiophene)K(Octanoyl)[dPhe(4-Me)]Y-OH
B13: HKFY-51 (peptide)
peptide: H(Trt)K(Octanoyl)LY-OH
B14: HKFY-9 (peptide)
peptide: H(2‑phenylethyl)K(Octanoyl)FY-OH
modifications: not fully specified
B15: HKFY-10 (peptide)
peptide: HK(Octanoyl)FY
modifications: not fully specified (residue 1)
B16: HKFY-66 (peptide)
peptide: H(Benzhydryl)K(Octanoyl)[dPhe(4-Me)]Y-NH2
B17: HKFY-64 (peptide)
peptide: H(4‑methoxybenzhydryl)K(Octanoyl)[dPhe(4-Me)]Y-OH
B18: HKFY-15 (peptide)
peptide: H(Trt)K(Octanoyl)[dPhe(4-Cl)][dY]
B19: HKFY-75 (peptide)
peptide: H(Tos)K(Octanoyl)[dPhe(4-Me)]Y-OH
B20: HKFY-62 (peptide)
peptide: [dH](Benzhydryl)K(Octanoyl)[dPhe(4-Me)]Y-OH
B21: HKFY-72 (peptide)
peptide: Biotin-H(Benzhydryl)K(Octanoyl)[dPhe(4-Me)]Y-OH
B22: HKFY-59 (peptide)
peptide: H(1,2‑diphenyl)K(Octanoyl)[dPhe(4-Me)]Y-OH
B23: HKFY-58 (peptide)
peptide: H(1‑phenyl)K(Octanoyl)[dPhe(4-Me)]Y-OH
B24: HKFY-52 (peptide)
peptide: H(Trt)FYDQQARF
modifications: also: C-terminal Phe amide in IUPAC name, not in sequence formula
B25: HKFY-60 (peptide)
peptide: H(2‑(4-tert-butyl)phenyl)K(Octanoyl)[dPhe(4-Me)]Y-OH
B26: HKFY-68 (peptide)
peptide: H(Benzhydryl)K(Octanoyl)[dPhe(4-Me)][Tyr(3-NO2)]-OH
B27: HKFY-11 (peptide)
peptide: H(2‑cyclohexylethyl)K(Octanoyl)FY
B28: HKFY-13 (peptide)
peptide: H(Trt)K(Octanoyl)[dPhe(4-Cl)]Y
B29: HKFY-16 (peptide)
peptide: H(Trt)[dK](Octanoyl)[dPhe(4-Cl)]Y
B30: HKFY-8 (peptide)
peptide: H(DAMP‑2)K(Octanoyl)FY
B31: HKFY-5 (peptide)
peptide: H(Mtt)K(Octanoyl)FY
B32: HKFY-57 (peptide)
peptide: H(2‑phenyl)K(Octanoyl)[dPhe(4-Me)]Y-OH
B33: HKFY-1 (peptide)
peptide: H(Trt)K(Octanoyl)FY
B34: HKFY-54 (peptide)
peptide: Lys(Octanoyl)-Phe-Tyr
B35: HKFY-50 (peptide)
peptide: H(Trt)K(Octanoyl)FS
B36: HKFY-70 (peptide)
peptide: H(Benzhydryl)K(Octanoyl)[dPhe(4-Me)][Tyr(3-NH2)]-OH
B37: HKFY-61 (peptide)
peptide: H(1‑(4-tert-butyl)phenyl)K(Octanoyl)[dPhe(4-Me)]Y-OH
B38: HKFY-6 (peptide)
peptide: H(DAMP‑3)K(Octanoyl)FY
B39: HKFY-55 (peptide)
peptide: K(Octanoyl)H(Trt)FY

For this assay, the target named is T1, GPR39 (G protein coupled receptor 39). The assay can be described thus: cell-based or functional assay.
As to B1, the “EC50; SRE-luciferase reporter” value is 43 nM and the “ECmax; SRE-luciferase reporter” value was 10.2 -fold induction over basal. Consider B2, for which the “EC50; SRE-luciferase reporter” value is 340 nM and the “ECmax; SRE-luciferase reporter” value was 8 -fold induction over basal. For B3, the “EC50; SRE-luciferase reporter” value came to 140 nM and the “ECmax; SRE-luciferase reporter” value is 15 -fold induction over basal. As to B4, the “EC50; SRE-luciferase reporter” value is 1560 nM and the “ECmax; SRE-luciferase reporter” value was 16 -fold induction over basal. B5: the “EC50; SRE-luciferase reporter” value worked out at 3 nM and the “ECmax; SRE-luciferase reporter” value is 18.3 -fold induction over basal. Regarding B6, the “EC50; SRE-luciferase reporter” value was 7 nM and the “ECmax; SRE-luciferase reporter” value is 14.2 -fold induction over basal. B7: the “EC50; SRE-luciferase reporter” value worked out at 35 nM and the “ECmax; SRE-luciferase reporter” value was 20.7 -fold induction over basal. The matching figures for B8: 970 nM and 11.2 -fold induction over basal. As to B9, the “EC50; SRE-luciferase reporter” value stood at 20 nM and the “ECmax; SRE-luciferase reporter” value is 20.9 -fold induction over basal.

For the molecule B10, the “EC50; SRE-luciferase reporter” value came to 15 nM and the “ECmax; SRE-luciferase reporter” value is 12.2 -fold induction over basal. Take B11: the “ECmax; SRE-luciferase reporter” value is 14.9 -fold induction over basal.

On to B12, for which the “EC50; SRE-luciferase reporter” value was 6 nM and the “ECmax; SRE-luciferase reporter” value was 13.5 -fold induction over basal.

Consider B13, for which the “EC50; SRE-luciferase reporter” value is 120 nM and the “ECmax; SRE-luciferase reporter” value was 14.4 -fold induction over basal. On to B14, for which the “EC50; SRE-luciferase reporter” value was 42700 nM and the “ECmax; SRE-luciferase reporter” value is 21 -fold induction over basal. In the case of B15, the “EC50; SRE-luciferase reporter” value came to 46500 nM and the “ECmax; SRE-luciferase reporter” value is 14 -fold induction over basal.

In the case of B16, the “EC50; SRE-luciferase reporter” value came to 11 nM and the “ECmax; SRE-luciferase reporter” value is 20.2 -fold induction over basal.

In the case of B17, the “EC50; SRE-luciferase reporter” value came out at 7 nM and the “ECmax; SRE-luciferase reporter” value is 16 -fold induction over basal. Consider B18, for which the “EC50; SRE-luciferase reporter” value was 98 nM and the “ECmax; SRE-luciferase reporter” value is 24.7 -fold induction over basal. Turning to B19, the “EC50; SRE-luciferase reporter” value is 1 nM and the “ECmax; SRE-luciferase reporter” value is 15.9 -fold induction over basal.

As to B20, the “EC50; SRE-luciferase reporter” value is 830 nM and the “ECmax; SRE-luciferase reporter” value was 28.1 -fold induction over basal. The matching figures for B21: 11 nM and 10.4 -fold induction over basal. With B22, the “EC50; SRE-luciferase reporter” value was 550 nM and the “ECmax; SRE-luciferase reporter” value is 6.76 -fold induction over basal. The matching figures for B23: 20 nM and 9.12 -fold induction over basal.

B24: the “EC50; SRE-luciferase reporter” value came out at 56400 nM and the “ECmax; SRE-luciferase reporter” value was 15.5 -fold induction over basal.

On to B25, for which the “EC50; SRE-luciferase reporter” value was found to be 190 nM and the “ECmax; SRE-luciferase reporter” value was 28.2 -fold induction over basal. Take B26: the “EC50; SRE-luciferase reporter” value came out at 13 nM and the “ECmax; SRE-luciferase reporter” value was 10.8 -fold induction over basal.

In the case of B27, the “EC50; SRE-luciferase reporter” value came out at 57800 nM and the “ECmax; SRE-luciferase reporter” value is 22 -fold induction over basal. In the same order, the values of B28 are 14 nM and 25.7 -fold induction over basal. Turning to B29, the “EC50; SRE-luciferase reporter” value is 240 nM and the “ECmax; SRE-luciferase reporter” value was 27.9 -fold induction over basal.

As for B30, the “EC50; SRE-luciferase reporter” value was found to be 33600 nM and the “ECmax; SRE-luciferase reporter” value was 17.3 -fold induction over basal.

On to B31, for which the “EC50; SRE-luciferase reporter” value stood at 1840 nM and the “ECmax; SRE-luciferase reporter” value is 16 -fold induction over basal. As to B32, the “EC50; SRE-luciferase reporter” value came out at 260 nM and the “ECmax; SRE-luciferase reporter” value is 8.5 -fold induction over basal.

On to B33, for which the “EC50; SRE-luciferase reporter” value is 150 nM and the “ECmax; SRE-luciferase reporter” value was 20.5 -fold induction over basal. Regarding B34, the “EC50; SRE-luciferase reporter” value worked out at 25900 nM and the “ECmax; SRE-luciferase reporter” value was 7.8 -fold induction over basal. In the same order, the values of B35 are 700 nM and 16.2 -fold induction over basal. Turning to B36, the “EC50; SRE-luciferase reporter” value came out at 20 nM and the “ECmax; SRE-luciferase reporter” value was 10.1 -fold induction over basal.

Take B37: the “EC50; SRE-luciferase reporter” value was found to be 20 nM and the “ECmax; SRE-luciferase reporter” value is 9.88 -fold induction over basal.

On to B38, for which the “EC50; SRE-luciferase reporter” value was 68400 nM and the “ECmax; SRE-luciferase reporter” value was 15 -fold induction over basal. For B39, the “EC50; SRE-luciferase reporter” value worked out at 2490 nM and the “ECmax; SRE-luciferase reporter” value was 16.8 -fold induction over basal.
